Experimental data: the Human Domainome abundance scans (Beltran et al. 2025)
± gives the uncertainty stated by the source.

B1: Chromodomain-helicase-DNA-binding protein 5, residues 411 to 463; numbered along this chain, Q8TDI0 (parent)
chain: EEDDHMEFCRVCKDGGELLCCDACPSSYHLHCLNPPLPEIPNGEWLCPRCTCP

Variants of: B1
Assay: abundance fitness (aPCA) (normalised: wild type 0, dead -1); higher = more abundant; growth selection in yeast, the domain comes from the species named
Settings: Homo sapiens

Variant	abundance fitness
K13D	0.01 ± 0.051
K13G	-0.008 ± 0.051
K13H	-0.265 ± 0.074
K13A	0.015 ± 0.064
K13Y	-0.368 ± 0.12
K13F	-0.546 ± 0.1
K13W	-0.299 ± 0.059
K13I	-0.644 ± 0.22
K13E	0.142 ± 0.078
K13T	-0.311 ± 0.046
K13N	0.075 ± 0.1
K13S	-0.309 ± 0.06
K13M	-0.18 ± 0.071
K13R	-0.068 ± 0.062
K13L	-0.206 ± 0.047
K13C	0.021 ± 0.098
D14L	-0.153 ± 0.053
D14W	-0.232 ± 0.096
D14G	0.086 ± 0.085
D14N	-0.061 ± 0.048
D14H	-0.037 ± 0.11
D14S	-0.17 ± 0.073
D14I	-0.519 ± 0.15
D14E	0.059 ± 0.13

Variant	abundance fitness
D14V	-0.157 ± 0.12
D14M	-0.051 ± 0.09
D14Q	-0.2 ± 0.18
D14K	-0.133 ± 0.1
D14C	-0.291 ± 0.083
D14Y	-0.452 ± 0.15
D14P	-0.984 ± 0.17
E17V	-0.228 ± 0.05
E17W	-0.458 ± 0.052
E17M	-0.13 ± 0.059
E17P	-0.239 ± 0.052
E17Q	0.032 ± 0.068
E17T	0.03 ± 0.055
E17S	-0.21 ± 0.045
E17Y	-0.272 ± 0.059
E17H	-0.138 ± 0.041
E17R	-0.187 ± 0.053
E17C	-0.187 ± 0.074
E17A	-0.063 ± 0.043
E17L	-0.27 ± 0.051
E17D	-0.276 ± 0.074
E17G	-0.171 ± 0.068
E17K	0.007 ± 0.068
E17N	-0.063 ± 0.061

Variant	abundance fitness
E17I	-0.102 ± 0.045
G15Q	0.047 ± 0.1
G15L	-0.151 ± 0.064
G15I	-0.112 ± 0.14
G15N	-0.359 ± 0.12
G15A	0.07 ± 0.084
G15H	-0.159 ± 0.11
G15W	-0.087 ± 0.09
G15C	-0.517 ± 0.12
G15E	-0.224 ± 0.13
G15T	0.036 ± 0.062
G15V	-0.061 ± 0.092
G15M	-0.165 ± 0.12
G15K	0.191 ± 0.097
G15F	0.079 ± 0.12
G15R	0.087 ± 0.058
G15D	0.098 ± 0.095
C12A	-0.963 ± 0.061
C12G	-0.66 ± 0.066
C12W	-0.552 ± 0.11
C12L	-0.971 ± 0.079
C12Q	-0.938 ± 0.19
C12D	-0.574 ± 0.048
C12R	-0.783 ± 0.082

Variant	abundance fitness
C12E	-0.504 ± 0.049
C12S	-0.947 ± 0.07
C12V	-0.828 ± 0.088
C12P	-0.699 ± 0.1
C12T	-0.581 ± 0.099
C12K	-0.684 ± 0.12
C12M	-0.923 ± 0.071
C12F	-0.756 ± 0.21
C12N	-0.852 ± 0.21
C12I	-0.601 ± 0.095
E2Q	-0.224 ± 0.14
E2M	-0.669 ± 0.4
E2W	-0.314 ± 0.13
E2I	0.392 ± 0.13
E2H	-0.261 ± 0.13
E2L	-0.038 ± 0.062
E2R	-0.042 ± 0.085
E2G	-0.131 ± 0.054
E2D	-0.565 ± 0.19
E2S	-0.062 ± 0.12
E2K	-0.157 ± 0.14
E2P	-0.228 ± 0.088
E2T	0.011 ± 0.12
E2V	-0.125 ± 0.081

Variant	abundance fitness
C21W	-0.958 ± 0.071
C21S	-0.883 ± 0.058
C21H	-0.773 ± 0.17
C21R	-1.09 ± 0.099
C21E	-0.873 ± 0.11
C21T	-1 ± 0.14
C21G	-0.809 ± 0.067
C21F	-0.844 ± 0.15
C21P	-0.483 ± 0.086
C21V	-0.932 ± 0.054
C21I	-1.13 ± 0.2
C21Q	-0.633 ± 0.079
C21M	-1.08 ± 0.23
C21Y	-0.946 ± 0.2
C21N	-1.03 ± 0.15
C21D	-0.791 ± 0.1
C21A	-0.83 ± 0.061
C21L	-0.999 ± 0.071
C21K	-0.641 ± 0.088
V11Y	-0.056 ± 0.076
V11E	0.18 ± 0.076
V11I	0.069 ± 0.061
V11G	0.046 ± 0.053
V11S	-0.118 ± 0.058

Variant	abundance fitness
V11F	-0.111 ± 0.1
V11Q	-0.012 ± 0.1
V11M	-0.008 ± 0.058
V11A	-0.276 ± 0.058
V11C	-0.275 ± 0.11
V11L	-0.1 ± 0.053
V11K	0.122 ± 0.09
V11D	0.062 ± 0.081
V11R	-0.113 ± 0.058
V11P	-0.795 ± 0.12
V11N	-0.131 ± 0.15
V11H	0.033 ± 0.054
V11W	-0.193 ± 0.052
D3V	0.114 ± 0.054
D3N	0.168 ± 0.069
D3Y	0.189 ± 0.065
D3Q	0.105 ± 0.047
D3F	0.357 ± 0.045
D3T	0.205 ± 0.05
D3H	-0.015 ± 0.046
D3E	0.136 ± 0.082
D3G	0.105 ± 0.045
D3C	-0.763 ± 0.065
D3R	0.14 ± 0.04

Variant	abundance fitness
D3A	0.028 ± 0.06
D3S	0.155 ± 0.044
D3I	0.36 ± 0.07
H5R	-0.089 ± 0.041
H5E	-0.476 ± 0.069
H5N	0.117 ± 0.064
H5F	0.067 ± 0.053
H5D	-0.177 ± 0.076
H5L	-0.223 ± 0.041
H5M	-0.223 ± 0.043
H5Y	-0.058 ± 0.048
H5T	-0.065 ± 0.038
H5V	-0.5 ± 0.041
H5W	-0.214 ± 0.043
H5C	-0.319 ± 0.094
H5Q	-0.028 ± 0.049
H5A	-0.26 ± 0.042
H5G	-0.246 ± 0.043
H5I	-0.02 ± 0.067
H5S	-0.197 ± 0.047
H5K	0.023 ± 0.042
M6C	-0.069 ± 0.065
M6G	-0.09 ± 0.066
